# Reference: patent US20080038265A1 (published 2008)
# Positions count from the first letter of the chain named.
# T1: soluble EpoR (EposR) (human, UniProt P19235 25-250, limits assumed)
# T1 construct: Test antigen in BIAcore and in yeast display assays; also called soluble recombinant human EpoR
# T1 sequence (looked up): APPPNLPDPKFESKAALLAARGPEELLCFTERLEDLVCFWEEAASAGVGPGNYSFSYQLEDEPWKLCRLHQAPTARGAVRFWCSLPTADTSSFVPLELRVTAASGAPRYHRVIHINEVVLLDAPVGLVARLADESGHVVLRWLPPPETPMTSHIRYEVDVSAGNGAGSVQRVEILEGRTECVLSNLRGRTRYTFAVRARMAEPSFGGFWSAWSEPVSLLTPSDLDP
# B1: Ab12.118 (antibody, IgG2, V domains shown)
# VH: QVQLQESGPGLVKPSETLSLTCTVSGASISSYYWSWIRQPPGKGLEWIGYIGYSGSTNYNPSLKSRVTISVDTSKNQFSLKLRSVTAADTAVYYCARERLGIGDYWGQGTLVTVSS
# VL: DIQLTQSPSSLSASVGDRVTITCRASQGIRNDLGWYQQKPGKAPKRLIYAASSLQSGVPSRFSGSGSGTEFTLTISSLQPEDFATYYCLQHNTYPPTFGQGTKVEIK
# B2: Ab12.119 (antibody, IgG2, V domains shown)
# VH: B1 VH with G52Y, Y53G
# VL: B1 VL
# B3: Ab12.121 (antibody, IgG2, V domains shown)
# VH: B1 VH with Y53G
# VL: B1 VL
# B4: Ab12.122 (antibody, IgG2, V domains shown)
# VH: B1 VH with G52Y, Y53G, S54E
# VL: B1 VL
# B5: Ab12.120 (antibody, IgG2, V domains shown)
# VH: B1 VH with G52Y, S54E
# VL: B1 VL
# B6: Ab12.123 (antibody, IgG2, V domains shown)
# VH: B1 VH with S54E
# VL: B1 VL
# B7: Ab12 (antibody, human IgG2, V domains shown)
# VH: B1 VH with G52Y
# VL: B1 VL
# B8: Ab12.6 (antibody, V domains shown)
# VH: B1 VH with Y53G, S54E
# VL: B1 VL
# B9: Ab12.56 (antibody, IgG2, V domains shown)
# VH: B1 VH with G52A, Y53G, S54T
# VL: B1 VL
# B10: Ab12 41/WT (scFv)
# scFv displayed on yeast: GENKVEYAPALMALSQVQLQESGPGLVKPSETLSLTCTVSGASISSYYWSWIRQPPGKGLEWIGYIYYSGSTNYNPSLKSRVTISVDTSKNQFSLKLRSVTAADTAVYYCARERLGIGDYWGQGTLVTVSSGGGGSGGGGSGGGGSDIQLTQSPSSLSASVGDRVTITCRASQGIRNDLGWYQQKPGKAPKRLIYAASSLQSGVPSRFSGSGSGTEFTLTISSLQPEDFATYYCLQHNTYPPTFGQGTKVEIK
# notes: also called Ab12 scFv construct with linker 41 in the tether position and the Gly/Ser linker (WT) in the scFv linker position
# Target: human erythropoietin receptor on human erythroleukemic cells (UT-7/Epo, F36E) (human), P19235
# Experiment: cell-based or functional assay
# Chain of human erythropoietin receptor on human erythroleukemic cells (UT-7/Epo, F36E) (human), P19235 (P19235 25-508, stated change not applied): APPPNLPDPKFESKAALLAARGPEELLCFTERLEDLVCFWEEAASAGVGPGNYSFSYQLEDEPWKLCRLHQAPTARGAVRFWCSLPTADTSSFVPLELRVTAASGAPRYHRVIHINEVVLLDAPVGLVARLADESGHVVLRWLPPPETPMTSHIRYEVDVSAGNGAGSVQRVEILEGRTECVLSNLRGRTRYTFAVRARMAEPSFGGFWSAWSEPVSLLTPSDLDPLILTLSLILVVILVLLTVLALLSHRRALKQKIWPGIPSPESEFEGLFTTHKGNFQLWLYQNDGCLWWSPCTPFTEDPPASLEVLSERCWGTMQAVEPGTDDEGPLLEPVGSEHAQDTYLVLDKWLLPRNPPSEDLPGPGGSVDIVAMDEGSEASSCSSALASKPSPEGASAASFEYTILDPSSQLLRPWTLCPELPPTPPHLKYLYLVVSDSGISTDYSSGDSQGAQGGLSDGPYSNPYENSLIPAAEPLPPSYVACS
"EC50, cell proliferation assay [nM]","Emax, cell proliferation assay [absorbance]",Binder
1.13,2.65,B1
1.34,2.53,B2
0.465,2.3,B3
0.42,2.4,B4
0.34,2,B5
0.91,2.7,B6
1.29,1.98,B7
0.58,2.81,B8
1.17,2.51,B9

# Target: T1, soluble EpoR (EposR)
# Experiment: yeast surface display, flow cytometry: equilibrium titration of scFv-displaying yeast with soluble EpoR at 37 C, bound EposR detected with MAB307 + anti-mouse RPE
# Experimental: Functional cell surface protein expression was compared by incubating the transformed yeast with increasing concentrations of soluble EpoR (EposR) at 37° C.
row,EC50 (read off the curve) [nM],Binder
1,~6,B10
